# Earlier results, collected in article PMC8760628.
# Target: IL-18 mature (Homo sapiens) (UniProt Q14116)
# Sequence (Q14116 37-193): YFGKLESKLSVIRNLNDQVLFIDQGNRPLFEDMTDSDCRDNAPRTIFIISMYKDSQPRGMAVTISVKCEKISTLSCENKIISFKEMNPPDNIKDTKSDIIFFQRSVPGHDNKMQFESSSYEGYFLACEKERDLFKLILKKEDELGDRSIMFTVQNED
# Chain of IL-18BP (O95998 31-194): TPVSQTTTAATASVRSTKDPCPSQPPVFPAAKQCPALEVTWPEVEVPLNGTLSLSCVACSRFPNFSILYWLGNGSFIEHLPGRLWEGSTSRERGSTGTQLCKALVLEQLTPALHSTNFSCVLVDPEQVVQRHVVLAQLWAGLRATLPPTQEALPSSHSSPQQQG
substance,measurement,value
IL-18BP (from UniProt O95998),Kd,0.5 nM
